Measurements published in US20260207766A1 (Bristol-Myers Squibb, published 2026).

Assays:
human CEACAM5 on cells [1] = target: T1, human CEACAM5 on cells (human, UniProt P06731 35-685); experiment: cell binding, MKN45 cells
T1 construct: Endogenous on MKN45, Ls174T, BxPC-3; overexpressed on HCT116; also called huCEACAM5; HCT116-huCEACAM5
T1 sequence: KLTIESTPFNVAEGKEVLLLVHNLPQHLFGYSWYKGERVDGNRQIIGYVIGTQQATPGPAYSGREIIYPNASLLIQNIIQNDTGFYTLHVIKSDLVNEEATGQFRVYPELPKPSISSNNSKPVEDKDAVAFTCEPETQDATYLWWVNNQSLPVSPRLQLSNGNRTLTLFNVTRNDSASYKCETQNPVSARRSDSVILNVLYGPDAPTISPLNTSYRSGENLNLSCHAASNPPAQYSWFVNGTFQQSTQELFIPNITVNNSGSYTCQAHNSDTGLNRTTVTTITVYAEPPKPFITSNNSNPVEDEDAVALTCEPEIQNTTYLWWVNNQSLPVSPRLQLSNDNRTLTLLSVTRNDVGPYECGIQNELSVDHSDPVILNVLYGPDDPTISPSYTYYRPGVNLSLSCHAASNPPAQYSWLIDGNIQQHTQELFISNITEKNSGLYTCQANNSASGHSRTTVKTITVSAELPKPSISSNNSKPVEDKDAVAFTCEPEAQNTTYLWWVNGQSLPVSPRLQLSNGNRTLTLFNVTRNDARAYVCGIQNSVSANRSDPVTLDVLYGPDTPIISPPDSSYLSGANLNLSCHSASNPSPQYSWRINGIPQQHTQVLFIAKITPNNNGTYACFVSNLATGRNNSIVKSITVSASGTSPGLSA

6xHis-A3-B3 huCEACAM5 [2] = target: T2, 6xHis-A3-B3 huCEACAM5 (human, UniProt P06731 501-685, N-linked glycans (seven predicted sites)); experiment: SPR Biacore 8K 37C, mAb captured on anti-human Fc, antigen analyte, 1:1 Langmuir fit
T2 construct: For cryo-EM it was expressed in Expi293F GnTI- cells; also called hCEACAM5-A3-B3 construct; human CEACAM5 A3-B3 domain protein
T2 sequence: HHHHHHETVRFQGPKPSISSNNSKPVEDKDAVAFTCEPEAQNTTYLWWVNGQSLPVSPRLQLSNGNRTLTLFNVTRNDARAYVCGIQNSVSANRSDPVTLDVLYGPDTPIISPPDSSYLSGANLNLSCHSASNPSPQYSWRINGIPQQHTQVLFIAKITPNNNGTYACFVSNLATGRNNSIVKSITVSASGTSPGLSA

[3] = target: T3, human CEACAM6 on HCT116 cells (human, UniProt P40199 35-320); experiment: flow cytometry on HCT-116 (CEACAM-6) cells
T3 construct: whole, on cells; also called HCT116-huCEACAM6
T3 sequence (looked up): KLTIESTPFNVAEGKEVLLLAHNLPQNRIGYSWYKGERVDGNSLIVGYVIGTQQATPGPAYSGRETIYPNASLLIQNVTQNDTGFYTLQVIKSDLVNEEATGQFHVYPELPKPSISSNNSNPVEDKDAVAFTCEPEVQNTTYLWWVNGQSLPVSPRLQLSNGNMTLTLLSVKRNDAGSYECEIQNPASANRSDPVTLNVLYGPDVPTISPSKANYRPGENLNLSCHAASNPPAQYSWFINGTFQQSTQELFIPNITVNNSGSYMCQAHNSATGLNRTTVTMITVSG

human CEACAM5 on cells [4] = target: T1, human CEACAM5 on cells; experiment: FACS on LS174T cells
human CEACAM5 on cells [5] = target: T1, human CEACAM5 on cells; experiment: FACS on BxPC3 cells
[6] = target: T4, human CEACAM1 on CHO-S cells (human, UniProt P13688 35-526); experiment: flow cytometry, CHO-S cells overexpressing human CEACAM1
T4 construct: whole, on cells; also called CHO-S-huCEACAM1
T4 sequence (looked up): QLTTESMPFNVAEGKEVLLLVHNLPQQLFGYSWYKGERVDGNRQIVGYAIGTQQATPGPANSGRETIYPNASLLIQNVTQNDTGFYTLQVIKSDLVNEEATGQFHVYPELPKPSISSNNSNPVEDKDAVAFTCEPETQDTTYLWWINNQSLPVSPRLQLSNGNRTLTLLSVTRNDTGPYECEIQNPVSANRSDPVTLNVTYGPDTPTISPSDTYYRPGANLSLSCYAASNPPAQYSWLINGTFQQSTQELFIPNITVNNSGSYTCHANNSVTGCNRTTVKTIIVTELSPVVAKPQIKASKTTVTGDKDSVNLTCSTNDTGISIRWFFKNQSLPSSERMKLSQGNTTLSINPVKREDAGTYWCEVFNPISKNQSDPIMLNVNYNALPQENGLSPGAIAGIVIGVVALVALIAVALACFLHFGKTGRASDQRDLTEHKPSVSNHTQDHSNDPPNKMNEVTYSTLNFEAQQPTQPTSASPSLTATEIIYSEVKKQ

human CEACAM5 on cells [7] = target: T1, human CEACAM5 on cells; experiment: FACS on MKN45 cells
human CEACAM5 on cells [8] = target: T1, human CEACAM5 on cells; experiment: cell-based or functional assay
[9] = target: T5, human CEACAM7 (R&D Systems catalog #9010-CM-050) (human, UniProt Q14002 36-242, limits assumed); experiment: SPR
T5 sequence (looked up): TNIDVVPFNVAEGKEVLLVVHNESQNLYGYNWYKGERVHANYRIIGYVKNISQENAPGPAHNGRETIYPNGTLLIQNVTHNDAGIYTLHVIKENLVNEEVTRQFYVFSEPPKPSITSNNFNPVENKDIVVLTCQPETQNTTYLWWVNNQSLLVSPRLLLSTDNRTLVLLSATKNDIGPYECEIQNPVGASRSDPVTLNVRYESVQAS

[10] = target: T6, human CEACAM8 (R&D Systems catalog #9639-CM-050) (human, UniProt P31997 35-320, limits assumed); experiment: SPR
T6 sequence (looked up): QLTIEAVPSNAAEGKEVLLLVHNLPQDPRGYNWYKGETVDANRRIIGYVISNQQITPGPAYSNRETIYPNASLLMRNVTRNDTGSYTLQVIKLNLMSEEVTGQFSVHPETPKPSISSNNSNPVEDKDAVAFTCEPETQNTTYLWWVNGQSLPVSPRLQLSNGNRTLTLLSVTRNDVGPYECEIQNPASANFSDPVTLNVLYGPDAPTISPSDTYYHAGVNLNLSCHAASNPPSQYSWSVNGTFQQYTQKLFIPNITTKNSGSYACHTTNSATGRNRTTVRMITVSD

[11] = target: T7, full-length human CEACAM5 (recombinant, internally generated) (human, UniProt P06731 35-685, limits assumed); experiment: SPR Biacore, mAb captured on anti-human Fc, full-length antigen analyte, 1:1 fit
T7 construct: Printed only as 'full-length'; also called Full-length huCEACAM5; biotinylated human CEACAM5
T7 sequence: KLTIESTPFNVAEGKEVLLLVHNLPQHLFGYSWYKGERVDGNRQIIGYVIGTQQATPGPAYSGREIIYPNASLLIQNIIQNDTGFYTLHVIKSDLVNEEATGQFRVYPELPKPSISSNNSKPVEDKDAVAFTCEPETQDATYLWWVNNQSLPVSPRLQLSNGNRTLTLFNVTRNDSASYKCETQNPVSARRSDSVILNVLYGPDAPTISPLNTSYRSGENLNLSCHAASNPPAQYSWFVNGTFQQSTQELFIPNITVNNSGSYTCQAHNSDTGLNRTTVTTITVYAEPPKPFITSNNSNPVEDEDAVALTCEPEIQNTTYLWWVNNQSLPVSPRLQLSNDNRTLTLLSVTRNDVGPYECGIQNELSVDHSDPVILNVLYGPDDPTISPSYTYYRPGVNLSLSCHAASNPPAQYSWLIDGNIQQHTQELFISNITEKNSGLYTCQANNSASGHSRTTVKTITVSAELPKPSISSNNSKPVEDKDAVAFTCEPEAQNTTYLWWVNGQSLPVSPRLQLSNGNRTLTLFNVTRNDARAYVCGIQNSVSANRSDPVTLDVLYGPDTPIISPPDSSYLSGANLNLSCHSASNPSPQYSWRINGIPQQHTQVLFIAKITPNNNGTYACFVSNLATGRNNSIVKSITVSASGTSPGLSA
Excerpt: The BIACORE® instrument was primed with 1×HBSP+ running buffer (Cytiva catalog no. BR100671). The CM5 chip (Cytiva catalog no. 29149604) was equilibrated to room temperature, and the BIACORE® instrument was re-primed. A human antibody Fc capture kit (Cytiva catalog no. 29234600) was utilized for this analysis. The human antibody Fc capture reagent was immobilized to both flow cells in all 8 flow channels of the CM5 chip via amine-coupling using the following conditions. Immobilization was performed at a temperature of 25° C. The anti-human Fc capture reagent was diluted to a concentration of 25 μg/mL in acetate pH5 buffer. The chip surface was activated by injecting a mixture of 1-ethyl-3-(-3-dimethylaminopropyl) carbodiimide hydrochloride (EDC) and N-hydroxy succinimide (NHS) for 420 seconds at a rate of 10 microliters per minute (uL/min). A concentration (25 ug/mL) of anti-human Fc capture reagent was then injected on the surface for 420 seconds at a rate of 10 uL/min. The remaining chip surface was blocked by injecting ethanolamine for 420 seconds at a rate of 10 uL/min.
The SPR kinetics against full-length human and cyno CEACAM5 were set up as follows. The antibody capture was performed by diluting the antibodies to a concentration of 10 nM in HBSP+ buffer. The 10 nM mAbs were captured for 20 seconds at 5 uL/min to achieve capture levels of approximately 100 RU. […] The association rate was 180 seconds at 30 uL/min. The dissociation rate was 600 seconds at 30 uL/min. Regeneration was performed using two injections of 3M magnesium chloride MgCl₂ for 30 seconds at 30 uL/min. A data fit was performed using a 1:1 binding model with global Rmax. Rmax reflects the maximal response when all ligand is occupied.

[12] = target: T4, human CEACAM1 on CHO-S cells; experiment: flow cytometry on CHO-S (CEACAM-1) cells
6xHis-A3-B3 huCEACAM5 [13] = target: T2, 6xHis-A3-B3 huCEACAM5; experiment: cryo-EM of CEACAM5 A3-B3 with both Fabs
Description: Below is a description of the different steps and methods that were performed.
After the incubation period, 50 μl of complexing reaction solution was passed through a Bio-Spin 30 Size-exclusion chromatography column (30 kDa MWCO, BioRad) to remove any contaminants and Apo-CEACAM5. Prior to use, Bio-Spin 30 columns were equilibrated with 1×PBS, and samples were applied according to the manufacturer's protocol.

| EC50 (human CEACAM5 on cells [1]) [nM] | Kd (6xHis-A3-B3 huCEACAM5 [2]) [nM] | binding result [3] | EC50 (human CEACAM5 on cells [4]) [nM] | EC50 (human CEACAM5 on cells [5]) [nM] | binding result [6] | EC50 (human CEACAM5 on cells [7]) [nM] | binding result [9] | binding result [10] | Kd [11] [nM] | koff [11] [s⁻¹] | kon [11] [M⁻¹ s⁻¹] | binding result [12] | binding result (6xHis-A3-B3 huCEACAM5 [13]) | Binder | Ls174T 5-day cytotoxicity (AUC), antibody conjugated to Compound A' (human CEACAM5 on cells [8]) | MKN45 5-day cytotoxicity (AUC), antibody conjugated to Compound A' (human CEACAM5 on cells [8]) |
| --- | --- | --- | --- | --- | --- | --- | --- | --- | --- | --- | --- | --- | --- | --- | --- | --- |
| 33.8 | 129 | no binding (tested: 300 nM) | 1.7 | 1.8 | no binding | 2.2 |  |  |  |  |  |  |  | MBN001 (antibody, V domains shown, also called mAb MBN001; MBN001 parent) VH: QVQLVETGGGVVQPGRSLRLSCAASGITFSSHGMHWVRQSPGKGLEWVTFISYDGSYKSYVDSVKGRFAISRDNSKNTLYLQMNSLRPEDTAVYYCATGLTGTGAFDIWGQGTMVTVSS VL: not shown |  |  |
|  |  | no binding (tested: 300 nM) | 1.5 | 1.9 |  | 2.1 | no binding | no binding | 5.26 | 0.000228 | 43300 | no binding (tested: 300 nM) |  | MBP002 (antibody, IgG1, V domains shown, also called hIgG1 form of MBP008) VH: QVQLVESGGGVVQPGRSLRLSCAASGITFSSHGMHWVRQAPGKGLEWVTFISYDGSYKSYVDSVKGRFTISRDNSKNTLYLQMNSLRAEDTAVYYCATGLTGTNALDIWGQGTMVTVSS VL: not shown | 18900 | 24100 |
|  |  |  |  |  |  |  |  |  |  |  |  |  | binds | Fab of bin 2 mAb (Fab, V domains shown, also called anti-CEACAM5 bin2 mAb Fab) VH: QVQLQESGPGLVKPSGTLSLTCAVSGGSISSSDWWSWVRQPPGKGLEWIGEIYHQGSTNYNPSLKSRVTISVDKSKNQFSLKLSSVTAADTAVYYCARASSSGYYGHDVWGQGTTVTVSS VL: DIQLTQSPSFLSASVGDRVTITCRASQGISTYLAWYQQKPGKAPKFLIYAEKTLQSGVPSRFSGSGSGTEFTLTISSLQPEDFATYYCQQLASYPFTFGPGTKVDIKR |  |  |
